One series concerns the target T1, AimR D360A (SPbeta) (Bacillus subtilis phage SPbeta (cloned …, UniProt O31927 1-386, D360A)).
T1 sequence: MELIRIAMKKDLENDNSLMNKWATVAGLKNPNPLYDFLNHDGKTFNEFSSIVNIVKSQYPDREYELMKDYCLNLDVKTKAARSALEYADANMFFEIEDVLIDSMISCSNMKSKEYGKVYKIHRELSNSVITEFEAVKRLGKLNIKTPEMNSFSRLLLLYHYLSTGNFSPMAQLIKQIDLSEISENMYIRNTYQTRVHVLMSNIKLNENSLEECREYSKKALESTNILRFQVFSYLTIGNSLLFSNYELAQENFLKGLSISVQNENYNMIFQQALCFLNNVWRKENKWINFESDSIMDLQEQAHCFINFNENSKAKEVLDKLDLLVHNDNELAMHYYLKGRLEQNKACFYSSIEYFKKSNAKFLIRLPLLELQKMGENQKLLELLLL
Briefly: EMSA; apo; WT probe assumed; EMSA: 50 mM HEPES pH 7.5, 5 mM MgCl2, 75 mM NaCl, 0.5 mM EDTA; 0.4 uM DNA, 4 uM AimR; 10 min at room temperature; 8% PAGE in TBE at 4 C or agarose in TAE at room temperature. Particulars: protein: recombinant; tags: N-terminal 6xHis-TEV, cleaved (as WT); chain copies: 2.

The next series deals with T2, AimR N202A (SPbeta) (Bacillus subtilis phage SPbeta (cloned …, UniProt O31927 1-386, N202A)).
T2 sequence: T1 sequence with N202A, A360D
Described as above. Particulars: protein: recombinant; tags: N-terminal 6xHis-TEV, cleaved (as WT); chain copies: 2.

Positions count from the first letter of the chain named.

B1: SPbeta operator WT 45 bp (dsDNA)
DNA 1: GTTGATCACTAGATGTTATTAAAACCTAATATTTAAGTGATGGCC
DNA 2: GGCCATCACTTAAATATTAGGTTTTAATAACATCTAGTGATCAAC
Take B1: the binding result with AimR D360A (SPbeta) is recorded as “no binding”; with AimR N202A (SPbeta), “binds”.

Source of the values: article PMC6458997.
